Test: soluble on expression in E. coli; label from the status in PepcDB or PDB records

Sequence | soluble on expression in E. coli
MGSDKIHHHHHHMRREEMWKLINATIEPIDTETSSSHILSEQDVNESTSGVIFIHTVGVMPVTVNDLIEEGRCARTDLSYADVILASRPVEEERTPVVYLNPDMNDASFYLLENAREIVPADLAKDVLLDRIVRYKRVQRVVDAVIVTDDPHLRRLLERELTKNFETLSLYERAEVFLEQHVATRPYLLVFSSALPRADGLELLLRAKQETIVPFHAIMISMYNRERDHVLAIERGVDGIMTLPLKVEEFRAWVSRLEGVHG | not soluble
MSLNGLKRGFPVMKEQIGGKLICISGIPGTGKSTICNLLNDLGYTCVEGNALAVKYGCLSGDEVDVDCLSDRMRSDNFKGIVAAHYAHLLPCNIVIILEADESALRQRMMDRGYSPEKIDENLDAQRSDTIYAESLERLPANRIFRIRNADLNVALSDILRIIGGRNEGHHHHHH | soluble
MLFDLDGTVWEGGRALPFAVDSINQVNLPLMYVTNNASRGPEVVASLLSDMGIFTQPEQVLTSAQAAIDLALKEVPVGSNVLVLGTDSFKSLAAEAGYMVVNSADMEPVAVFHGHNPATSWTELSEAALAIRCGAKYYASNLDTTLPSERGLCVGNGSMVAAVVSATGVQPVSAGKPEAAMFHVAAEKLASERPLAVGDRLNTDIAGGVAAGFDTLHLLTGVSQHWALVHAIESERPTLIAEDLRALSSDRSVLMPQLQGDFNAYLQGTEIVLNGGSTASTSTEALRSVLSVAWQSAEFGGTVKPVSEHAIRCMSEWR | not soluble
MDDRTEYDVYTDGSYVNGQYAWAYAFVKDGKVHYEDADVGKNPAAATMRNVAGEIAAALYAVKKASQLGVKIRILHDYAGIAFWATGEWKAKNEFTQAYAKLMNQYRGIYSFEKVKAHSGNEFNDYVDMKAKSALGIRDLEHHHHHH | soluble
MRNLIISAALVAASLFGMSAQAAEPIESGKQYVELTSAVPVAVPGKIEVIELFWYGCPHCYAFEPTINPWVEKLPSDVNFVRIPAMFGGPWDAHGQLFITLDTMGVEHKVHAAVFEAIQKGGKRLTDKNDMADFVATQGVNKDDFLKTFDSFAVKGKIAQYKELAKKYEVTGVPTMIVNGKYRFDLGSAGGPEKTLQVADQLIDKERAAAKAAK | not soluble
MGSDKIHHHHHHMREDIVVIGGYGQVGRAICRLLARRYAGRVYAAGRNFEKANRFSLETDGEVQPLQVDIHQPKKAFEALNQPKVVIVCIDQDHTEFARLCAKNGIDYLDITANGKFLKELGGLNRGAVKHTGVISVGLAPGITNLLVEQAVRMFEQVHQVDISILLGLGDEHGVGAMEWTFQQINQSFDVMVQNDWRQVKSFTDRKQVSFGKAIGNHSVYRFPFSDQQTLARTLHLPTVSTRLCFDSRLVTAVVATMRRLHITKLLSLPAVRKVLTTLLNVFPYGSEQYGVRVEVKGVRKDEKEEVYSLFTGENEALMTAHVASAVAFALYEHPCPKGVFHIEELFELVFIDQHISLTLKGTEFSYPLPTPKQFVQNETSICSQNHS | not soluble
MKSIGTQILQTERLILRRFVESDAEAMFQNWASSAENLTYVTWDPHPDVEITRNSICNWVASYTNLNYYKWAICLKENPEQVIGDISIVKIDEADLSCEIGYVLGKAYWGNGMMTETLKAILDFCFTQAGFQKVRARYASLNPASGRVMEKAGMSYLQTIVNGVERKGYLADLIYYGISREEC | not soluble
MLKPETIHISGPAGILETIHIPSEQVPARGVAVINHPNPLQGGTNTNKVIQTAAKALSKLGFHCYLPNLRGVGGSGGTHDYGRGETQDCLAVIDYARAQHPEAPEFALSGFSFGGYVATFAAQARTPDLLLLIGAAVCHYTDRPEPSAVPNVAKTLMIHGAEDEVVEIGKALKWAEPQDLPVITIAGSTHFFHGKLIVLRDTILRFAPVCLNG | not soluble
MGSDKIHHHHHHMQKEQCYMCEKSATSAEHVPPKCLFPEFKDAKKNLRVNLITVPSCDEHNGKKSHDDEFLMVSIAGIIGNNSIGYQHYSGKIQRALRRTSYKLLEKVFLRKELVRIGDENKFIEILWGTPDYERLINCFSHIAYGIYHHHFKQKFYGVLKPYLGFLHTNEQNPKAFKAFIKEKVRVELADEPKYGDNLEVFYYQFTKPDNFGIFLVKLCFYQNVDVFVSYMPSGAQKPTHLGFELMNRGIKTIITLGDKEYEFN | not soluble
MKRLWQHCHAATLKGGKYSIVEDAALVTDGPLIHWIGPRAELPPGDYAERIDLGGAWLTPGLIDCHTHAVFGGNRSGEFEQRLEGVSYAEIAAAGGGIASTVRATREASEEELLASARKRLEPLLRDGVTALEIKSGYGLDLASERKMLRVIRRLGERLPATVRSTCLAAHALPPEYAGRADDYIEHICSTMLPALAGEGLVDAVDAFCEHLAFSPAQVERVFIAARELGLPVKLHAEQLSSLHGSSLAARYRALSADHLEYMTEDDARAMGEAGTVAVLLPGAFYLLRETQLPPIDALRRHGVAMAIASDLNPGTSPALSLRLMLNMACTLFRLTPEETLAGVTLHAARALGLEASHGSLEVGKLADFVAWDIERPAELAYWLGGDLPKRVIRHAEEVYRG | not soluble
MIEIHKKFLEKDELFQFLKVAKYHHSPQNSFEVFTTLAYTGMRAGELLALKWSDIDFENNTISITKTYYNPNNNKKHYQILTRKTESSIGKITVDPHVIQLLKDYKVNVQDTWKNELYVDNNFVFTDVNGYPLVIKKLQLWIKAILKKTDITNKQISTHSFRYTHYALLIEAGVHIKEIQERLRHKDINTTMNIYAKITNSYKKDASQKFSKLEHHHHHH | not soluble
MKIVIDLMGADHGVLPIIEGVSRALENKSFSVVLVGDKDKATPFISKELASKVEMIHTQDYIKMEEAATEAIKRKESSIYLGMDILKNGADALISAGHSGATMGLATLRLGRIKGVERPAICTLMPSVGKRPSVLLDAGANTDCKPEYLIDFALMGYEYAKSVLHYDSPKVGLLSNGEEDIKGNTLVKETHKMLKAYDFFYGNVEGSDIFKGVVDVVVCDGFMGNVVLKTTEGVASAIGSIFKDEIKSSFKSKMGALMLKNAFGILKQKTDYAEYGGAPLLGVNKSVIISHGKSNARAVECAIYQAISAVESQVCLRITQAFESLKSQSFESQSDQQDA | not soluble
KSYASTPELRKTWLDSMARIHVKNGDLSEAAMCYVHVTALVAEYLTRKGVFRQGCTAFRVITPNIDEEASMMEDVGMQDVHFNEDVLMELLEQCADGLWKAERYELIADIYKLIIPIYEKRRDFERLAHLYDTLHRAYSKVTEVMHSGRRLLGTYFRVAFFGQGFFEDEDGKEYIYKEPKLTPLSEISQRLLKLYSDKFGSENVKMIQDSGKVNPKDLDSKYAYIQVTHVIPFFDEKELQERKTEFERSHNIRRFMFEMPFTQTGKRQGGVEEQCKRRTILTAIHCFPYVKKRIPVMYQHHTDLNPIEVAIDEMSKKVAELRQLCSSAEVDMIKLQLKLQGSVSVQVNAGPLAYARAFLDDTNTKRYPDNKVKLLKEVFRQFVEACGQALAVNERLIKEDQLEYQEEMKANYREMAKELSEIMHEQLG | soluble
MDKILGIKFRDYGQVYYFLAGEAEVSLGDRVIVETDQGQGIGEVIAVRDDRPSDAGDEELQPILRVAEGEDLERAETNEAMGAEAAAYCRECIRARNLDMKLVDVEVFFDLSKLIFYFTAPSRIDFRELVKDLVKHYRTRIELRQIGVRHETQMIGAVGNCGMVCCCRRYLRKFAPVTIKMAKEQNLFLNPAKISGICGRLLCCLSYEQENYEEFHRSCPRLGKKYMTNRGPVKVLRANMFRNSLMAFTDTGEEIEISLDEWQQLDPRRPDQQPQQARPPRRDRPEGGSARDGNGDRAPAPSSDRAAGATGGEAARHGGGRAGERSDRGGRPDRAERADRRGMPHGDVPGSGETPPAGGEAEADAPSLHAAGVEFATEQPAPFDTSPDGGAVMGMEQVEALEHHHHHH | not soluble
MGHHHHHHSHMNTKTMRLPPRRVLTADKRKERDAFISSVTDNPPEIAKFPSPPPKLVPPPVNPISKKSSTAAAEPIGSNQLMLAGYLSHEYLTQGTLFGEQWNQARAQAESSKIKPSHTVEPAEECEPKRKRYREVANLLRSDGAQLPGIVNPAQLARFLKL | soluble
MSQAELPVLRVAYMPLIDCAPLVAASRLGLDHAYGLQLQLHRQASWAGVRDRLLAGEVDAAHTLASLVYAIDLGVGGPQCPMALLMTLNHNGQAITLAPALAQGVAAGQPLPQVLAEAGRRVVFAQTFPTGTHALWLYYWLAACGVDPMRDVDVVSIPPPQMPEALASGLVDGYCSGEPWAAVAEAQGSGQRVIRSGELWPEHPEKVLACRREFAALQPELSERLTACVLEACRWLDAAPANRAQCAQWLADPDYIGVPAAHLAACLDADAATVSVDPSALAFHRGGAVNMPWLSDGEWFLEQFQRWGWHTLQAADLARLHDIHRLDNYRRAAQRAGVTAPDADRRINRLFDTPAALEHHHHHH | not soluble
MKIEENMELPVILVTSGVLLPGASLKIPIRSKLNIQTIEKYLTRSSNDNYVVIAYKVSTDKVYEVATIAYVEKLFGWTFNSTVHYSLDVIGLHRANIDKLSLPTCIVSKVVDLNEAISNQNAIEKLVTGAKIIASNSLTDKFSREIYSLIDEKEYGKLADLCVSQMKFLGFMQLLEFLGANGTDARVEMCIKWMNEKKDANTLKLKVPNSLEASFPVDGKKRKIPNVKNQVEQLEEKLNAIEFSDEVSDRVYSELHRLKSMNAQQSEYNILMNWLELVSSLPWNTSTIDDIELHKARTILTESHEAMDDVKERVLEHLAVCKMNNSVKGMILCFTGPPGIGKTSIAKAIAESMGRKFQRVSLGGIRDESDIRGHRRTYVAAMPGRIIEALKTCKTNNPVFLLDEVDKLYSGNQGSPSAALLELLDPEQNSTFHDHYLNIPFDVSKIMFIATANDIDRLEPALRDRLEIIEMSGYSLKEKVKICENHLLTRQLTKHCISHDYVKLERQAIVAMIEEYTMEAGVRQLERNVGAICRNVALRLAEALNSDPGADVLPVMELPIQISASNIHKILKNKHMKRVKIVEKMRPLPAGVCFGLSVTTIGGRVMPIEASKSKGTGKIVTTGHLGKVLKESILVAKGWLSANSERLGLGTLEDQDIHVHLPAGAVNKDGPSAGTGLACALVSLATNIPLRSDAAVTGEISLTGHVLPIGGVKEKVLAAQREGLRRVVLPKSNEEEYLKMDEDIRLEMDVVLAETIEDVIGAMMDKSPVLAKL | not soluble
ISNKHFEQAIERVVAGMEKKTQVLQKEEKKTVAYHEAGHAIAGWFLQHADPLLKVSIIPRGKGLGYAQYLPKEQYLYSKDQLLDRMCMTLGGRVAEEIFFGRITTGAQDDLQKVTQMAYSQVVKFGMSEKVGPLSFETPAPGEMAFDKPYSEATAQLIDQEQFADLPEILDSGNLPICRKFSIPAICRFAGNFQFRQFANLPNCRKFSIPTICQFAGNFNFQKIADLPEKIVRDLVMNALRRTRDLLLEKRSDIERVALRLLEKEILNREDMIEL | not soluble
MDPSQQTPQETVVAPVAPLLEDQLELDMKHCFENLIVIDVGANLTNKKYSRDLDSVVQRARDAGVQKLMVHGTSVKSSKEALRLSRIYPDIIYSTAGIHPHDSKSIVEEPATWFDLEHIAQAQECVAIGPCGLDYQRDFSEPDAQKQIFAKQLHLAIRLNKPLLIHERSAQLDLLEILDKFENLPPVIIRGFMGTAEEALKYLDRRFYISLTGYLCKDKSDTGVRRLLEDGTLPLDRLLVETDAPFMYPNTRASKLPQHVKTGITERSLLYLHRYCTFQRNEPCSLPAIVEMIAAFMKKSPDEVALATAFNALKLFGLSLEHHHHHH | soluble
MTSALATGLATITADGTVLDAWFPAPELTAVDTTGTTVLDGDDIPEHLRLLVGEDADRGVRRQAITTTIADLDAAPIDAYDAYLRLHLLSHRLVKPHGQNLDGIFGLLTNVVWTNHGPCEVKNFDITRAKLQARGPVTVYLVDKFPRMVDYVLPSGVRIGDADRVRLGAHLAEGTTVMHEGFVNFNAGTLGNSMVEGRISAGVVVDDGSDVGGGASIMGTLSGGGKQVISLGKRCLLGANSGCGIPLGDDCVIEAGLYVTAGSKIIVRGAVAEATGLNDGDTTKALELAGANNILFRRNSISGAIEATAWKSQAVELNDALHAN | soluble
